The target in this series is T1, BRB1 tyrosine kinase substrate peptide.
T1 chain: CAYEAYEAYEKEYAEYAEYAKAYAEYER

B1: EphA2 (protein)
chain: HRRRKNQRARQSPEDVYFSKSEQLKPLKTYVDPHTYEDPNQAVLKFTTEIHPSCVTRQKVIGAGEFGEVYKGMLKTSSGKKEVPVAIKTLKAGYTEKQRVDFLGEAGIMGQFSHHNIIRLEGVISKYKPMMIITEYMENGALDKFLREKDGEFSVLQLVGMLRGIAAGMKYLANMNYVHRDLAARNILVNSNLVCKVSDFGLSRVLEDDPEATYTTSGGKIPIRWTAPEAISYRKFTSASDVWSFGIVMWEVMTYGERPYWELSNHEVMKAINDGFRLPTPMDCPSAIYQLMMQCWQQERARRPKFADIVSILDKLIRAPDSLKTLADFDPRVSIRLPSTSGSEGVPFRTVSEWLESIKMQQYTEHFMAAGYTAIEKVVQMTNDDIKRIGVRLPGHQKRIAYSLLGLKDQVNTVGIPI
Regarding B1, the Signal to Noise ratio with BRB1 Peptide (TR-FRET kinase assay; kinase 0.25 nM) was determined as 26.9.

B2: EphB2 (protein)
chain: CNRRGFERADSEYTDKLQHYTSGHMTPGMKIYIDPFTYEDPNEAVREFAKEIDISCVKIEQVIGAGEFGEVCSGHLKLPGKREIFVAIKTLKSGYTEKQRRDFLSEASIMGQFDHPNVIHLEGVVTKSTPVMIITEFMENGSLDSFLRQNDGQFTVIQLVGMLRGIAAGMKYLADMNYVHRDLAARNILVNSNLVCKVSDFGLSRFLEDDTSDPTYTSALGGKIPIRWTAPEAIQYRKFTSASDVWSYGIVMWEVMSYGERPYWDMTNQDVINAIEQDYRLPPPMDCPSALHQLMLDCWQKDRNHRPKFGQIVNTLDKMIRNPNSLKAMAPLSSGINLPLLDRTIPDYTSFNTVDEWLEAIKMGQYKESFANAGFTSFDVVSQMMMEDILRVGVTLAGHQKKILNSIQVMRAQMNQIQSVEG
Turning to B2, the Signal to Noise ratio with BRB1 Peptide (TR-FRET kinase assay; kinase 0.25 nM) amounted to 28.8.

B3: EphB1 (protein)
chain: SRKRAYSKEAVYSDKLQHYSTGRGSPGMKIYIDPFTYEDPNEAVREFAKEIDVSFVKIEEVIGAGEFGEVYKGRLKLPGKREIYVAIKTLKAGYSEKQRRDFLSEASIMGQFDHPNIIRLEGVVTKSRPVMIITEFMENGALDSFLRQNDGQFTVIQLVGMLRGIAAGMKYLAEMNYVHRDLAARNILVNSNLVCKVSDFGLSRYLQDDTSDPTYTSSLGGKIPVRWTAPEAIAYRKFTSASDVWSYGIVMWEVMSFGERPYWDMSNQDVINAIEQDYRLPPPMDCPAALHQLMLDCWQKDRNSRPRFAEIVNTLDKMIRNPASLKTVATITAVPSQPLLDRSIPDFTAFTTVDDWLSAIKMVQYRDSFLTAGFTSLQLVTQMTSEDLLRIGITLAGHQKKILNSIHSMRVQISQSPTAMA
For B3, the Signal to Noise ratio with BRB1 Peptide (TR-FRET kinase assay; kinase 0.5 nM) stood at 29.9.

B4: EphA6 (protein)
chain: TGRCQWYIKAKMKSEEKRRNHLQNGHLRFPGIKTYIDPDTYEDPSLAVHEFAKEIDPSRIRIERVIGAGEFGEVCSGRLKTPGKREIPVAIKTLKGGHMDRQRRDFLREASIMGQFDHPNIIRLEGVVTKRSFPAIGVEAFCPSFLRAGFLNSIQAPHPVPGGGSLPPRIPAGRPVMIVVEYMENGSLDSFLRKHDGHFTVIQLVGMLRGIASGMKYLSDMGYVHRDLAARNILVNSNLVCKVSDFGLSRVLEDDPEAAYTTTGGKIPIRWTAPEAIAYRKFSSASDAWSYGIVMWEVMSYGERPYWEMSNQDVILSIEEGYRLPAPMGCPASLHQLMLHCWQKERNHRPKFTDIVSFLDKLIRNPSALHTLVEDILVMPESPGEVPEYPLFVTVGDWLDSIKMGQYKNNFVAAGFTTFDLISRMSIDDIRRIGVILIGHQRRIVSSIQTLRLHMMHIQEKGFHV
Consider B4, for which the Signal to Noise ratio with BRB1 Peptide (TR-FRET kinase assay; kinase 0.5 nM) worked out at 5.4.

B5: EphA1 (protein)
chain: RSRRAQRQRQQRQRDRATDVDREDKLWLKPYVDLQAYEDPAQGALDFTRELDPAWLMVDTVIGEGEFGEVYRGTLRLPSQDCKTVAIKTLKDTSPGGQWWNFLREATIMGQFSHPHILHLEGVVTKRKPIMIITEFMENGALDAFLREREDQLVPGQLVAMLQGIASGMNYLSNHNYVHRDLAARNILVNQNLCCKVSDFGLTRLLDDFDGTYETQGGKIPIRWTAPEAIAHRIFTTASDVWSFGIVMWEVLSFGDKPYGEMSNQEVMKSIEDGYRLPPPVDCPAPLYELMKNCWAYDRARRPHFQKLQAHLEQLLANPHSLRTIANFDPRMTLRLPSLSGSDGIPYRTVSEWLESIRMKRYILHFHSAGLDTMECVLELTAEDLTQMGITLPGHQKRILCSIQGFKD
B5: the Signal to Noise ratio with BRB1 Peptide (TR-FRET kinase assay; kinase 0.5 nM) stood at 10.8.

B6: EphA8 (protein)
chain: KKRHCGYSKAFQDSDEEKMHYQNGQAPPPVFLPLHHPPGKLPEPQFYAEPHTYEEPGRAGRSFTREIEASRIHIEKIIGSGDSGEVCYGRLRVPGQRDVPVAIKALKAGYTERQRRDFLSEASIMGQFDHPNIIRLEGVVTRGRLAMIVTEYMENGSLDTFLRTHDGQFTIMQLVGMLRGVGAGMRYLSDLGYVHRDLAARNVLVDSNLVCKVSDFGLSRVLEDDPDAAYTTTGGKIPIRWTAPEAIAFRTFSSASDVWSFGVVMWEVLAYGERPYWNMTNRDVISSVEEGYRLPAPMGCPHALHQLMLDCWHKDRAQRPRFSQIVSVLDALIRSPESLRATATVSRCPPPAFVRSCFDLRGGSGGGGGLTVGDWLDSIRMGRYRDHFAAGGYSSLGMVLRMNAQDVRALGITLMGHQKKILGSIQTMRAQLTSTQGPRRHL
For the protein B6, the Signal to Noise ratio with BRB1 Peptide (TR-FRET kinase assay; kinase 0.25 nM) was 32.3.

B7: ACK (protein)
chain: GEGPLQSLTCLIGEKDLRLLEKLGDGSFGVVRRGEWDAPSGKTVSVAVKCLKPDVLSQPEAMDDFIREVNAMHSLDHRNLIRLYGVVLTPPMKMVTELAPLGSLLDRLRKHQGHFLLGTLSRYAVQVAEGMGYLESKRFIHRDLAARNLLLATRDLVKIGDFGLMRALPQNDDHYVMQEHRKVPFAWCAPESLKTRTFSHASDTWMFGVTLWEMFTYGQEPWIGLNGSQILHKIDKEGERLPRPEDCPQDIYNVMVQCWAHKPEDRPTFVALRDFLLEAQPTDMRALQDFEEPDKLHIQMNDVITVIEGRAENYWWRGQNTRTLCVGPFPRNVVTSVAGLSAQDISQPLQNSFIHTGHGDSDPRHCW
In the case of B7, the Signal to Noise Ratio with BRB1 Peptide (TR-FRET kinase assay; kinase 20 nM) was found to be 17.3.

B8: EphB3 (protein)
chain: CLRKQRHGSDSEYTEKLQQYIAPGMKVYIDPFTYEDPNEAVREFAKEIDVSCVKIEEVIGAGEFGEVCRGRLKQPGRREVFVAIKTLKVGYTERQRRDFLSEASIMGQFDHPNIIRLEGVVTKSRPVMILTEFMENCALDSFLRLNDGQFTVIQLVGMLRGIAAGMKYLSEMNYVHRDLAARNILVNSNLVCKVSDFGLSRFLEDDPSDPTYTSSLGGKIPIRWTAPEAIAYRKFTSASDVWSYGIVMWEVMSYGERPYWDMSNQDVINAVEQDYRLPPPMDCPTALHQLMLDCWVRDRNLRPKFSQIVNTLDKLIRNAASLKVIASAQSGMSQPLLDRTVPDYTTFTTVGDWLDAIKMGRYKESFVSAGFASFDLVAQMTAEDLLRIGVTLAGHQKKILSSIQDMRLQMNQTLPVQV
B8: the Signal to Noise ratio with BRB1 Peptide (TR-FRET kinase assay; kinase 0.1 nM) came to 24.7.

B9: EphA5 (protein)
chain: SGSCCECGCGRASSLCAVAHPSLIWRCGYSKAKQDPEEEKMHFHNGHIKLPGVRTYIDPHTYEDPNQAVHEFAKEIEASCITIERVIGAGEFGEVCSGRLKLPGKRELPVAIKTLKVGYTEKQRRDFLGEASIMGQFDHPNIIHLEGVVTKSKPVMIVTEYMENGSLDTFLKKNDGQFTVIQLVGMLRGISAGMKYLSDMGYVHRDLAARNILINSNLVCKVSDFGLSRVLEDDPEAAYTTRGGKIPIRWTAPEAIAFRKFTSASDVWSYGIVMWEVVSYGERPYWEMTNQDVIKAVEEGYRLPSPMDCPAALYQLMLDCWQKERNSRPKFDEIVNMLDKLIRNPSSLKTLVNASCRVSNLLAEHSPLGSGAYRSVGEWLEAIKMGRYTEIFMENGYSSMDAVAQVTLEDLRRLGVTLVGHQKKIMNSLQEMKVQLVNGMVPL
With B9, the Signal to Noise Ratio with BRB1 Peptide (TR-FRET kinase assay; kinase 1 nM) was determined as 35.5.

B10: EphA3 (protein)
chain: RFCGYKSKHGADEKRLHFGNGHLKLPGLRTYVDPHTYEDPTQAVHEFAKELDATNISIDKVVGAGEFGEVCSGRLKLPSKKEISVAIKTLKVGYTEKQRRDFLGEASIMGQFDHPNIIRLEGVVTKSKPVMIVTEYMENGSLDSFLRKHDAQFTVIQLVGMLRGIASGMKYLSDMGYVHRDLAARNILINSNLVCKVSDFGLSRVLEDDPEAAYTTRGGKIPIRWTSPEAIAYRKFTSASDVWSYGIVLWEVMSYGERPYWEMSNQDVIKAVDEGYRLPPPMDCPAALYQLMLDCWQKDRNNRPKFEQIVSILDKLIRNPGSLKIITSAAARPSNLLLDQSNVDITTFRTTGDWLNGVWTAHCKEIFTGVEYSSCDTIAKISTDDMKKVGVTVVGPQKKIISSIKALETQSKNGPVPV
Turning to B10, the Signal to Noise ratio with BRB1 Peptide (TR-FRET kinase assay; kinase 0.5 nM) came to 22.4.

B11: ARG (protein)
chain: GQQVGRVGEAPGLQQPQPRGIRGSSAARPSGRRRDPAGRTTETGFNIFTQHDHFASCVEDGFEGDKTGGSSPEALHRPYGCDVEPQALNEAIRWSSKENLLGATESDPNLFVALYDFVASGDNTLSITKGEKLRVLGYNQNGEWSEVRSKNGQGWVPSNYITPVNSLEKHSWYHGPVSRSAAEYLLSSLINGSFLVRESESSPGQLSISLRYEGRVYHYRINTTADGKVYVTAESRFSTLAELVHHHSTVADGLVTTLHYPAPKCNKPTVYGVSPIHDKWEMERTDITMKHKLGGGQYGEVYVGVWKKYSLTVAVKTLKEDTMEVEEFLKEAAVMKEIKHPNLVQLLGVCTLEPPFYIVTEYMPYGNLLDYLRECNREEVTAVVLLYMATQISSAMEYLEKKNFIHRDLAARNCLVGENHVVKVADFGLSRLMTGDTYTAHAGAKFPIKWTAPESLAYNTFSIKSDVWAFGVLLWEIATYGMSPYPGIDLSQVYDLLEKGYRMEQPEGCPPKVYELMRACWKWSPADRPSFAETHQAFETMFHDSSISEEVAEELGRAASSSSVVPYLPRLPILPSKTRTLKKQVENKENIEGAQDATENSASSLAPGFIRGAQASSGSPALPRKQRDKSPSSLLEDAKETCFTRDRKGGFFSSFMKKRNAPTPPKRSSSFREMENQPHKKYELTGNFSSVASLQHADGFSFTPAQQEANLVPPKCYGGSFAQRNLCNDDGGGGGGSGTAGGGWSGITGFFTPRLIKKTLGLRAGKPTASDDTSKPFPRSNSTSSMSSGLPEQDRMAMTLPRNCQRSKLQLERTVSTSSQPEENVDRANDMLPKKSEESAAPSRERPKAKLLPRGATALPLRTPSGDLAITEKDPPGVGVAGVAAAPKGKEKNGGARLGMAGVPEDGEQPGWPSPAKAAPVLPTTHNHKVPVLISPTLKHTPADVQLIGTDSQGNKFKLLSEHQVTSSGDKDRPRRVKPKCAPPPPPVMRLLQHPSICSDPTEEPTALTAGQSTSETQEGGKKAALGAVPISGKAGRPVMPPPQVPLPTSSISPAKMANGTAGTKVALRKTKQAAEKISADKISKEALLECADLLSSALTEPVPNSQLVDTGHQLLDYCSGYVDCIPQTRNKFAFREAVSKLELSLQELQVSSAAAGVPGTNPVLNNLLSCVQEISDVVQR
For the protein B11, the Signal to Noise ratio with BRB1 Peptide (TR-FRET kinase assay; kinase 0.5 nM) stood at 10.6.

The record behind these values is patent US20100015650.
